What all share (test): ELISA; affinity-based ELISA; 5 ug/ml of each dockerin-containing enzyme immobilised on a MaxiSorp plate; CBM-Coh modules applied at 0.01 ng/ml to 100 ug/ml (Fig. S4: 1 or 10 ug/ml); detected with rabbit anti-CBD
In experiment [1] the target is GH9B (GH9B-CBM3c-Doc), dockerin-containing glycoside hydrolase of C. saccharoperbutylacetonicum (Clostridium saccharoperbutylacetonicum N1-4 (HMT)).
Experiment [2] addresses GH74A (GH74A-Doc), dockerin-containing glycoside hydrolase of C. saccharoperbutylacetonicum (Clostridium saccharoperbutylacetonicum N1-4 (HMT)).
For experiment [3], the target named is GH44A (GH44A-Doc), dockerin-containing glycoside hydrolase of C. saccharoperbutylacetonicum (Clostridium saccharoperbutylacetonicum N1-4 (HMT)).
Experiment [4] deals with GH48A (GH48A-Doc), dockerin-containing glycoside hydrolase of C. saccharoperbutylacetonicum (Clostridium saccharoperbutylacetonicum N1-4 (HMT)).
Experiment [5] has as its target GH5B (GH5B-Doc), dockerin-containing glycoside hydrolase of C. saccharoperbutylacetonicum (Clostridium saccharoperbutylacetonicum N1-4 (HMT)).

What is called pEC50 is −log10 of the EC50, conventionally taken in molar units.

Take “X2-Coh2 of the scaffoldin ScaA, fused to a CBM cassette (domain or fragment)”: the pEC50 in experiment [1] is 2.4; in experiment [2], 4; in experiment [3], 4.

As to “X2-Coh1 of the scaffoldin ScaA, fused to a CBM cassette (domain or fragment)”, the pEC50 in experiment [1] was 0.7; in experiment [4] it was 3; in experiment [5], 2.5; in experiment [3], 4.

For the origin of these results see PMC7157769.
